# Numbering of substitutions follows the chain as printed. Ends that are not written are not given here.
# T1: biotinylated Compound 1 (biotinylated CCR4 partial peptide) (human, also: biotinylated, site not given here)
# T1 construct: Same peptide as in BSA-Compound 1
# T1 peptide: DESIYSNYYLYESIPKPC
# T2: BSA-Compound 1 (human CCR4 extracellular region peptide Compound 1 conjugated with BSA) (human, also: conjugated to BSA through SMCC, site not given here)
# T2 construct: the claims speak of positions 13 to 29; ELISA antigen; also called CCR4 partial peptide
# T2 peptide: DESIYSNYYLYESIPKPC
# T3: human CC chemokine receptor 4 (CCR4) on CCR4/EL-4 cells (human, UniProt P51679 1-360)
# T3 construct: also called hCCR4; human CCR4-high-expressing cell
# T3 sequence: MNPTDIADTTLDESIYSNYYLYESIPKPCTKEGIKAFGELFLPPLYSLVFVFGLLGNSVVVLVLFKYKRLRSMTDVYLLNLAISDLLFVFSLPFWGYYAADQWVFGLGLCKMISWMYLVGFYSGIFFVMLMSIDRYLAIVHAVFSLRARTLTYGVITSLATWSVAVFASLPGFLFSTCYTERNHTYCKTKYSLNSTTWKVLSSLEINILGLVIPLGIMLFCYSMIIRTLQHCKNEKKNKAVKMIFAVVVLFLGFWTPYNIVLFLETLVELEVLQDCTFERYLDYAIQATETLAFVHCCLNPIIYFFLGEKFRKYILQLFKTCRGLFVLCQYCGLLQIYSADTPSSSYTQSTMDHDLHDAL
# B1: anti-CCR4 CDR-grafted antibody Ga10LV1 (antibody, human IgG1, V domains shown)
# VH: EVQLVESGGDLVQPGRSLRLSCAASGFIFSNYGMSWVRQAPGKGLEWVATISSASTYSYYPDSVKGRFTISRDNAKNSLYLQMNSLRVEDTALYYCARHSDGNFAFGYWGQGTLVTVSS
# VL: DVVMTQSPLSLPVTPGEPASISCRSSRNIVHINGDTYLEWYLQKPGQSPQLLIYKVSNRFSGVPDRFSGSGSGTDFTLKISRVEAEDVGVYYCFQGSLLPWTFGQGTKVEIK
# notes: Tested as COS-7 supernatant and as purified antibody from YB2/0; also called pKM2160Ga10LV1
# B2: anti-CCR4 CDR-grafted antibody HV1LV1 (antibody, human IgG1, V domains shown)
# VH: B1 VH with D10G, R16G, A49S, A75S, S78T, V88A, L93V
# VL: B1 VL
# notes: Tested as COS-7 culture supernatant only; also called pKM2160HV1LV1
# B3: anti-CCR4 CDR-grafted antibody Ga13LV3 (antibody, human IgG1, V domains shown)
# VH: B1 VH with G42D, G44R, A97G
# VL: B1 VL with V3L
# notes: Tested as COS-7 supernatant and as purified antibody from YB2/0; also called pKM2160Ga13LV3
# B4: anti-CCR4 CDR-grafted antibody Ga10LV0 (antibody, human IgG1, V domains shown)
# VH: B1 VH
# VL: B1 VL with V2I
# notes: CDR alone grafted; Tested as COS-7 supernatant and as purified antibody from YB2/0; also called pKANTEX2160Ga10LV0; pKM2160Ga10LV0
# B5: anti-CCR4 CDR-grafted antibody HV3LV0 (antibody, human IgG1, V domains shown)
# VH: B1 VH with D10G, R16G, A49S, A75S, S78T, V88A, L93V, A97G
# VL: B1 VL with V2I
# notes: Tested as COS-7 culture supernatant only; also called pKM2160HV3LV0
# B6: anti-CCR4 CDR-grafted antibody HV1LV2 (antibody, human IgG1, V domains shown)
# VH: B1 VH with D10G, R16G, A49S, A75S, S78T, V88A, L93V
# VL: B1 VL with V2I, V3L
# notes: Tested as COS-7 culture supernatant only; also called pKM2160HV1LV2
# B7: anti-CCR4 CDR-grafted antibody Ga11LV3 (antibody, human IgG1, V domains shown)
# VH: B1 VH with A97G
# VL: B1 VL with V3L
# notes: Tested as COS-7 supernatant and as purified antibody from YB2/0; also called pKANTEX2160Ga11LV3; antibody of producing cell KM8760 (FERM BP-8130)
# B8: anti-CCR4 CDR-grafted antibody Ga13LV1 (antibody, human IgG1, V domains shown)
# VH: B1 VH with G42D, G44R, A97G
# VL: B1 VL
# notes: Tested as COS-7 supernatant and as purified antibody from YB2/0; also called pKM2160Ga13LV 1
# B9: anti-CCR4 CDR-grafted antibody Ga12LV3 (antibody, human IgG1, V domains shown)
# VH: B1 VH with G42D, G44R
# VL: B1 VL with V3L
# notes: Tested as COS-7 supernatant and as purified antibody from YB2/0; also called pKANTEX2160Ga12LV3; antibody of producing cell KM8759 (FERM BP-8129)
# B10: anti-CCR4 CDR-grafted antibody HV0LV1 (antibody, human IgG1, V domains shown)
# VH: B1 VH with D10G, R16G, I28T, A49S, A75S, S78T, V88A, L93V
# VL: B1 VL
# notes: Tested as COS-7 culture supernatant only; also called pKM2160HV0LV1
# B11: anti-CCR4 CDR-grafted antibody Ga11LV1 (antibody, human IgG1, V domains shown)
# VH: B1 VH with A97G
# VL: B1 VL
# notes: Tested as COS-7 supernatant and as purified antibody from YB2/0; also called pKM2160Ga11 LV1
# B12: anti-CCR4 CDR-grafted antibody HV0LV0 (antibody, human IgG1, V domains shown)
# VH: B1 VH with D10G, R16G, I28T, A49S, A75S, S78T, V88A, L93V
# VL: B1 VL with V2I
# notes: Tested as COS-7 culture supernatant only; also called pKM2160HV0LV0
# B13: anti-CCR4 CDR-grafted antibody HV2LV0 (antibody, human IgG1, V domains shown)
# VH: B1 VH with D10G, R16G, I28T, A49S, A75S, S78T, V88A, L93V, A97G
# VL: B1 VL with V2I
# notes: Tested as COS-7 culture supernatant only; also called pKM2160HV2LV0
# B14: anti-CCR4 CDR-grafted antibody Ga12LV1 (antibody, human IgG1, V domains shown)
# VH: B1 VH with G42D, G44R
# VL: B1 VL
# notes: Tested as COS-7 supernatant and as purified antibody from YB2/0; also called pKM2160Ga12LV1
# B15: anti-CCR4 CDR-grafted antibody HV0LV2 (antibody, human IgG1, V domains shown)
# VH: B1 VH with D10G, R16G, I28T, A49S, A75S, S78T, V88A, L93V
# VL: B1 VL with V2I, V3L
# notes: Tested as COS-7 culture supernatant only; also called pKM2160HV0LV2
# B16: anti-CCR4 CDR-grafted antibody HV1LV0 (antibody, human IgG1, V domains shown)
# VH: B1 VH with D10G, R16G, A49S, A75S, S78T, V88A, L93V
# VL: B1 VL with V2I
# notes: Tested as COS-7 culture supernatant only; also called pKM2160HV1LV0
# B17: anti-CCR4 CDR-grafted antibody Ga10LV3 (antibody, human IgG1, V domains shown)
# VH: B1 VH
# VL: B1 VL with V3L
# notes: Tested as COS-7 supernatant and as purified antibody from YB2/0; also called pKM2160Ga10LV3
# B18: anti-CCR4 CDR-grafted antibody HV0LV3 (antibody, human IgG1, V domains shown)
# VH: B1 VH with D10G, R16G, I28T, A49S, A75S, S78T, V88A, L93V
# VL: B1 VL with V3L
# notes: Tested as COS-7 culture supernatant only; also called pKM2160HV0LV3
# B19: anti-CCR4 CDR-grafted antibody HV2LV3 (antibody, human IgG1, V domains shown)
# VH: B1 VH with D10G, R16G, I28T, A49S, A75S, S78T, V88A, L93V, A97G
# VL: B1 VL with V3L
# notes: Tested as COS-7 culture supernatant only; also called pKM2160HV2LV3
# B20: anti-CCR4 CDR-grafted antibody HV3LV3 (antibody, human IgG1, V domains shown)
# VH: B1 VH with D10G, R16G, A49S, A75S, S78T, V88A, L93V, A97G
# VL: B1 VL with V3L
# notes: Tested as COS-7 culture supernatant only; also called pKM2160HV3LV 3
# B21: anti-CCR4 CDR-grafted antibody Ga10LV2 (antibody, human IgG1, V domains shown)
# VH: B1 VH
# VL: B1 VL with V2I, V3L
# notes: Tested as COS-7 culture supernatant only; also called pKM2160Ga10LV2
# B22: anti-CCR4 CDR-grafted antibody HV1LV3 (antibody, human IgG1, V domains shown)
# VH: B1 VH with D10G, R16G, A49S, A75S, S78T, V88A, L93V
# VL: B1 VL with V3L
# notes: Tested as COS-7 culture supernatant only; also called pKM2160HV1LV3
# Tests used:
# [1] = target: T1, biotinylated Compound 1 (biotinylated …); assay: BIAcore 2000, biotinylated Compound 1 on sensor tip SA, antibody at 4 µg/ml
# Description: In order to measure the binding activity in more detail, the binding activity of various purified antibodies was measured using BIAcore 2000 (manufactured by BIACORE) as follows. In this case, HBS-EP (manufactured by BIACORE) was used as the buffer for diluting samples and for the measurement. First, 5 μl of 0.05 μg/ml solution of Compound 1 as a biotinylated CCR4 partial peptide was added to a sensor tip SA (manufactured by BIACORE) at a flow rate of 5 μl/minute and immobilized on the sensor tip.
# To the prepared biotinylated compound 1 -immobilized sensor tip, 20 μl of 4 μg/ml solution of each of the purified antibodies was added at a flow rate of 5 μl/minute, and after completion of the addition, the dissociation reaction was monitored for 4 minutes and then the sensor tip surface was regenerated by adding 5 μl of 10 mM HCl twice. In this way, a binding reaction curve (sensorgram) for Compound 1 was obtained.
# [2] = target: T2, BSA-Compound 1 (human CCR4 …); assay: ELISA on BSA-Compound 1, purified antibody
# [3] = target: T3, human CC chemokine receptor 4 (CCR4) on …; assay: flow cytometry on CCR4/EL-4 cells, antibody at 10 µg/ml
# Description: Into a 96 well plate, 2×10⁵ or more of CCR4/EL-4 cells, CCR4-high-expressing cells obtained in Reference Example 3, were dispensed. An antibody solution was prepared by diluting each of the purified antibodies and a human immunoglobulin (manufactured by Welfide) for preventing nonspecific staining to give concentrations of 10 μg/ml and 3.75 mg/ml, respectively, with a buffer for FACS, and the antibody solution was added at 100 μl/well and allowed to react for 30 minutes in ice. As a negative control, 10 μg/ml of an anti-human IL-5 receptor a chain antibody (WO 97/10354) was used. After washing twice with 200 μl/well of the buffer for FACS, a PE-labeled anti-human IgG antibody (manufactured by Coulter) diluted 100 times was added at 50 μl/well. After the reaction in ice under shading and subsequent washing three times with 200 μl/well of the buffer for FACS, the reaction product was suspended in 500 μl of the buffer for FACS and the fluorescence intensity was measured using a flow cytometer.
# [4] = target: T2, BSA-Compound 1 (human CCR4 …); assay: ELISA on BSA-Compound 1, COS-7 culture supernatant
# Description: Into a 96 well ELISA plate (manufactured by Greiner), 0.05 μg/ml of the prepared conjugate was dispensed in at 50 μl/well and allowed to stand at 4° C. overnight for adsorption. After washing with PBS, PBS containing 1% BSA (hereinafter referred to as “1% BSA-PBS”) was added thereto at 100 μl/well and allowed to react at room temperature for 1 hour to block the remaining active groups. After washing each well with PBS containing 0.05% Tween 20 (hereinafter referred to as “Tween-PBS”), a culture supernatant of the transformant was added at 50 μl/well and allowed to react at room temperature for 1 hour. After the reaction and subsequent washing of each well with Tween-PBS, a peroxidase-labeled goat anti-human IgG(γ) antibody solution (manufactured by American Qualex) diluted 6,000 folds with 1% BSA-PBS was added as a secondary antibody solution in 50 μl/well portions and allowed to react at room temperature for 1 hour After the reaction and subsequent washing with Tween-PBS, an ABTS substrate solution (a solution prepared by dissolving 0.55 g of […] ammonium in 1 liter of 0.1 M citrate buffer (pH 4.2) and adding 1 μl/ml hydrogen peroxide just before use) was added at 50 μl/well to develop color, and the reaction was stopped 20 minutes thereafter by adding 5% SDS solution at 50 μl/well. Thereafter, absorbance at 415 nm was measured.
binding result [1],binding result [2],binding result [3],binding result [4],Binder
binds,binds,binds,–,B1
–,–,–,binds,B2
binds,–,binds,binds,B3
binds,–,binds,binds,B4
–,–,–,binds,B5
–,–,–,binds,B6
binds,binds,binds,–,B7
binds,–,binds,binds,B8
binds,binds,binds,–,B9
–,–,–,binds,B10
binds,binds,binds,–,B11
–,–,–,binds,B12
–,–,–,binds,B13
binds,binds,binds,–,B14
–,–,–,binds,B15
–,–,–,binds,B16
binds,binds,binds,–,B17
–,–,–,binds,B18
–,–,–,binds,B19
–,–,–,binds,B20
–,–,–,binds,B21
–,–,–,binds,B22

# From US20030175273A1 (Kyowa Kirin, published 2003)
